Source: paper PMC11364024, “Binding structures of SERF1a with NT17-polyQ peptides of huntingtin exon 1 revealed by SEC-SWAXS, NMR and molecular simulation” (IUCrJ, 2024)

T1: human small EDRK-rich factor 1a (SERF1a) (human)
T1 construct: source: purified from the human SERF1a gene as reported previously (Tsai et al., 2023)
T1 chain: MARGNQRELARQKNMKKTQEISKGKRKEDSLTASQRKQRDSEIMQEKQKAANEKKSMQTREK


Tests used:
[1] = molecular target: the molecule itself; test: SEC-SWAXS (size-exclusion column with small- and wide-angle X-ray scattering, UV-Vis absorption and dRI); single-component samples (SERF1a 4.1 mg/ml; Htt-1 10 mg/ml injected, diluted ca. 2-4 fold on the column); sodium phosphate buffer pH 7.4; 283 K; aggregation number from zero-angle intensity I0 and the concentration from optical data
[2] = molecular target: T1, human small EDRK-rich factor 1a (SERF1a); test: SEC-SWAXS (size-exclusion column with small- and wide-angle X-ray scattering, UV-Vis absorption and dRI); mixtures of SERF1a with NT17 or with Htt-3 at 1:2 molar ratio, eluted together; sodium phosphate buffer pH 7.4; 283 K; composition of the complex from I0, UV-Vis absorption at 214 nm and dRI over the elution peak; conditions: both partners purified

| stoichiometry N [2] | Binder | stoichiometry N [1] |
| --- | --- | --- |
|  | MATLEKLMKAFESLKSFLQQLQQQLQQLQQQYK (huntingtin exon 1: NT17 followed by a 14-residue polyQ region in which four leucines replace the residues of position a/d to enhance alpha-helix formation; two C-terminal residues added after the polyQ region; not of huntingtin; source: synthetic peptide (peptide synthesis core, Genomics Research Center, Academia Sinica)) [Htt-1 (NT17-polyQ peptide of 33 amino acids with four leucines in the polyQ region)] | 2 |
| ~1 Htt-3 per SERF1a | MATLEKLMKAFESLKSFPQQPQQQPQQPQQQYK (huntingtin exon 1: NT17 followed by a 14-residue polyQ region in which the positions a/d are substituted by four prolines to suppress alpha-helix formation; two C-terminal residues added after the polyQ region; not of huntingtin; source: synthetic peptide (peptide synthesis core, Genomics Research Center, Academia Sinica)) [Htt-3 (NT17-polyQ peptide of 33 amino acids with four prolines in the polyQ region)] |  |
| ~2 NT17 per SERF1a | MATLEKLMKAFESLKSF (huntingtin exon 1 (Httex1), N-terminal first 17 amino acids; also called NT17 fragment; source: synthetic peptide (peptide synthesis core, Genomics Research Center, Academia Sinica)) [NT17 (the N-terminal first 17 amino acids of the Httex1 protein)] |  |
